Laboratory results from patent US20040115215A1.

Tests used:
[1] = target: Crotalus durissus terrificus venom; assay: ELISA, C.d.t. venom-coated; undiluted
[2] = target: Crotalus durissus terrificus venom; assay: ELISA, C.d.t. venom-coated; dilution 1:5
[3] = target: Crotalus durissus terrificus venom; assay: ELISA, C.d.t. venom-coated; dilution 1:25
[4] = target: Crotalus durissus terrificus venom; assay: ELISA, C.d.t. venom-coated; dilution 1:25; remark: listed apart in the source
[5] = target: Crotalus durissus terrificus venom; assay: ELISA, C.d.t. venom-coated; dilution 1:500
[6] = target: Crotalus durissus terrificus venom; assay: ELISA, C.d.t. venom-coated; dilution 1:125
[7] = target: Crotalus durissus terrificus venom; assay: ELISA, C.d.t. venom-coated; dilution 1:625
[8] = target: Crotalus durissus terrificus venom; assay: ELISA, C.d.t. venom-coated; dilution 1:125; remark: listed apart in the source
[9] = target: Crotalus durissus terrificus venom; assay: ELISA, C.d.t. venom-coated; dilution 1:625; remark: listed apart in the source
[10] = target: Crotalus durissus terrificus venom; assay: ELISA, C.d.t. venom-coated; dilution 1:3125
[11] = target: Crotalus durissus terrificus venom; assay: ELISA, C.d.t. venom-coated; dilution 1:3125; remark: listed apart in the source
[12] = target: Crotalus durissus terrificus venom; assay: ELISA, C.d.t. venom-coated; dilution 1:2,500
[13] = target: Crotalus durissus terrificus venom; assay: ELISA, C.d.t. venom-coated; dilution 1:12,500
[14] = target: Crotalus durissus terrificus venom; assay: ELISA, C.d.t. venom-coated; dilution 1:62,500
[15] = target: Crotalus durissus terrificus venom; assay: ELISA, C.d.t. venom-coated; dilution 1:312,500

Q: With “preimmune IgY (from unimmunized hens or supermarket eggs) (antibody)” as the substance, how does the absorbance [1] read?
A: 0.003 OD

Q: What about the absorbance [2] of the same substance?
A: < 0 OD

Q: What about the absorbance [3] of the same substance?
A: 0.016 OD

Q: And the absorbance [4]?
A: 0 OD

Q: What about the absorbance (412 nm filter) [5] of the same substance?
A: 0.005 OD

Q: And the absorbance [6]?
A: < 0 OD

Q: And the absorbance [7]?
A: < 0 OD

Q: What about the absorbance [8] of the same substance?
A: 0.003 OD

Q: And the absorbance [9]?
A: 0 OD

Q: And the absorbance [10]?
A: < 0 OD

Q: What about the absorbance [11] of the same substance?
A: 0.002 OD

Q: And the absorbance (412 nm filter) [12]?
A: 0.004 OD

Q: And the absorbance (412 nm filter) [13]?
A: 0.001 OD

Q: And the absorbance (412 nm filter) [14]?
A: 0.001 OD

Q: What about the absorbance (412 nm filter) [15] of the same substance?
A: 0.01 OD
